For 1 molecule, SPRi interaction signal results are on record in US20190015361A1 (Maxwell Biosciences, Inc., priority 2017, published 2019).

This assay deals with Aβ40 (t=0 days), Aβ42 (t=0 days), Aβ42 (t=24 days). The assay is described as follows: SPRi interaction with the three immobilized Aβ forms. Type of assay: binding, human. The note with it: analyte flowed onto the SPRi chip for 10 minutes, all three Aβ forms.
Aβ40 (t=0 days), Aβ42 (t=0 days), Aβ42 (t=24 days), sequence (P05067 672-711 limits assumed): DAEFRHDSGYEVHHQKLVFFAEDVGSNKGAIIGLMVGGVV

B1: ovalbumin: non-correlated protein used as negative control sample in SPRi (Sigma-Aldrich, A5503) (protein)
chain: GSIGAASMEFCFDVFKELKVHHANENIFYCPIAIMSALAMVYLGAKDSTRTQINKVVRFDKLPGFGDSIEAQCGTSVNVHSSLRDILNQITKPNDVYSFSLASRLYAEERYPILPEYLQCVKELYRGGLEPINFQTAADQARELINSWVESQTNGIIRNVLQPSSVDSQTAMVLVNAIVFKGLWEKAFKDEDTQAMPFRVTEQESKPVQMMYQIGLFRVASMASEKMKILELPFASGTMSMLVLLPDEVSGLEQLESIINFEKLTEWTSSNVMEERKIKVYLPRMKMEEKYNLTSVLMAMGITDVFSSSANLSGISSAESLKISQAVHAAHAEINEAGREVVGSAEAGVDAASVSEEFRADHPFLFCIKHIATNAVLFFGRCVSP
As for B1, the SPRi interaction signal result is given as “did not produce interaction signals”.
